The source of these data is patent US20240209076A1 (KODIAK SCIENCES, published 2024).

As a reminder, the Kd is the constant that tells how readily two partners part at equilibrium. The koff is a measure of how fast the partners let go of each other. By kon is commonly meant the rate constant with which the complex forms.

B1: anti-IL-6 antibody, parent sequence (heavy chain WT, light chain WT) (antibody, V domains shown)
VH: EVQLVESGGGLVQPGGSLRLSCAASGFTFSPFAMSWVRQAPGKGLEWVAKISPGGSWTYYSDTVTGRFTFSLDTSKSTAYLQMNSLRAEDTAVYYCARQLWGYYALDIWGQGTLVTVSS
VL: DIQLTQSPSSLSASVGDRVTITCSASISVSYMYWYQQKPGKAPKLLIYDMSNLASGVPSRFSGSGSGTDFTLTISSLQPEDFATYYCMQWSGYPYTFGQGTKVEIK
notes: Tested as full antibody from Expi293 cells in an engineered human IgG1 framework (L234A, L235A, G237A, L443C, EU); also called wild-type; parent molecule
B2: anti-IL-6 antibody, heavy chain F32G, light chain WT (antibody, IgG1, V domains shown)
VH: B1 VH with F32G
VL: B1 VL
notes: Full IgG1 tested; V domains derived as in m2
B3: anti-IL-6 antibody, heavy chain F29H, light chain WT (antibody, IgG1, V domains shown)
VH: B1 VH with F29H
VL: B1 VL
notes: as for B2
B4: anti-IL-6 antibody, heavy chain D107E, light chain WT (antibody, IgG1, V domains shown)
VH: B1 VH with D107E
VL: B1 VL
notes: as for B2
B5: anti-IL-6 antibody, heavy chain I51R, light chain WT (antibody, IgG1, V domains shown)
VH: B1 VH with I51R
VL: B1 VL
notes: as for B2
B6: anti-IL-6 antibody, heavy chain G66D, light chain WT (antibody, IgG1, V domains shown)
VH: B1 VH with G66D
VL: B1 VL
notes: Full IgG1 tested
B7: anti-IL-6 antibody, heavy chain G26S, light chain WT (antibody, IgG1, V domains shown)
VH: B1 VH with G26S
VL: B1 VL
notes: as for B2
B8: anti-IL-6 antibody, heavy chain F29Y, light chain WT (antibody, IgG1, V domains shown)
VH: B1 VH with F29Y
VL: B1 VL
notes: as for B2
B9: anti-IL-6 antibody, heavy chain D62Q, light chain WT (antibody, IgG1, V domains shown)
VH: B1 VH with D62Q
VL: B1 VL
notes: as for B2
B10: anti-IL-6 antibody, heavy chain G26R, light chain WT (antibody, IgG1, V domains shown)
VH: B1 VH with G26R
VL: B1 VL
notes: as for B2
B11: anti-IL-6 antibody, heavy chain I108E, light chain WT (antibody, IgG1, V domains shown)
VH: B1 VH with I108E
VL: B1 VL
notes: as for B2
B12: anti-IL-6 antibody, heavy chain I108F, light chain WT (antibody, IgG1, V domains shown)
VH: B1 VH with I108F
VL: B1 VL
notes: as for B2
B13: anti-IL-6 antibody, heavy chain G66E, light chain WT (antibody, IgG1, V domains shown)
VH: B1 VH with G66E
VL: B1 VL
notes: as for B2
B14: anti-IL-6 antibody, light chain V29L (heavy chain WT) (antibody, V domains shown)
VH: B1 VH
VL: B1 VL with V29L
notes: See note of m2; also called WT / V29L
B15: anti-IL-6 antibody, light chain S91A (heavy chain WT) (antibody, V domains shown)
VH: B1 VH
VL: B1 VL with S91A
notes: See note of m2; also called WT / S91A
B16: anti-IL-6 antibody, light chain S55L (heavy chain WT) (antibody, V domains shown)
VH: B1 VH
VL: B1 VL with S55L
notes: See note of m2; also called WT / S55L
B17: anti-IL-6 antibody, light chain Y48W (heavy chain WT) (antibody, V domains shown)
VH: B1 VH
VL: B1 VL with Y48W
notes: See note of m2; also called WT / Y48W
B18: anti-IL-6 antibody, light chain Y95G (heavy chain WT) (antibody, V domains shown)
VH: B1 VH
VL: B1 VL with Y95G
notes: See note of m2; also called WT / Y95G
B19: anti-IL-6 antibody, light chain S55Y (heavy chain WT) (antibody, V domains shown)
VH: B1 VH
VL: B1 VL with S55Y
notes: See note of m2; also called WT / S55Y
B20: anti-IL-6 antibody, light chain S51R (heavy chain WT) (antibody, V domains shown)
VH: B1 VH
VL: B1 VL with S51R
notes: See note of m2; also called WT / S51R
B21: anti-IL-6 antibody, light chain S55W (heavy chain WT) (antibody, V domains shown)
VH: B1 VH
VL: B1 VL with S55W
notes: See note of m2; also called WT / S55W
B22: anti-IL-6 antibody, light chain Y95I (heavy chain WT) (antibody, V domains shown)
VH: B1 VH
VL: B1 VL with Y95I
notes: See note of m2; also called WT / Y95I
B23: anti-IL-6 antibody, light chain S51K (heavy chain WT) (antibody, V domains shown)
VH: B1 VH
VL: B1 VL with S51K
notes: See note of m2; also called WT / S51K
B24: anti-IL-6 antibody, light chain Y31F (heavy chain WT) (antibody, V domains shown)
VH: B1 VH
VL: B1 VL with Y31F
notes: See note of m2; also called WT / Y31F
B25: anti-IL-6 antibody, light chain S55R (heavy chain WT) (antibody, V domains shown)
VH: B1 VH
VL: B1 VL with S55R
notes: See note of m2; also called WT / S55R
B26: anti-IL-6 antibody, light chain Y31G (heavy chain WT) (antibody, V domains shown)
VH: B1 VH
VL: B1 VL with Y31G
notes: See note of m2; also called WT / Y31G
B27: anti-IL-6 antibody, light chain S51D (heavy chain WT) (antibody, V domains shown)
VH: B1 VH
VL: B1 VL with S51D
notes: See note of m2; also called WT / S51D

Changes are numbered by the printed parent chain. Names and notes keep the numbering of the source.

The first test concerns the target T1, recombinant human IL-6 (human, UniProt P05231 30-212).
T1 construct: Flowed in solution over the captured antibodies
Nature of the test: SPR (Biacore), purified IgG on Protein A, 37 C. As for the experimental part:
(§1) Antibodies were captured on a Protein A chip (GE) by injecting 1:20 dilution of cell supernatant at 10 μL/min for 60 seconds. […] The sensor chip was regenerated by a 60 seconds injection of 10 mM Glycine pH 1.7 at flow rate of 50 μL/min. […] For this setup, 1 μg/mL of purified antibody was injected over a Protein A chip at 10 μL/min for 25-28 seconds. Data analysis for supernatant and purified samples were performed using BIAevaluation software (GE). All sensorgrams were double reference subtracted and fit using a 1:1 Langmuir binding model.
A general note: In SPR one partner is held on a chip, and binding of the other changes the refractive index at the surface.
T1 sequence (P05231 30-212 limits assumed): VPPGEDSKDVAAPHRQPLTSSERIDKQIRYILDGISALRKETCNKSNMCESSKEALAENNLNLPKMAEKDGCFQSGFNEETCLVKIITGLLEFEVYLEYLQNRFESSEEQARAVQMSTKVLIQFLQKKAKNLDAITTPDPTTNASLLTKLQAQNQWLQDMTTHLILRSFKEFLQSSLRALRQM
Regarding B1, the Kd was 0.158 nM, the dissociation rate constant (koff) was determined as 0.000139 s⁻¹ and the kon is 880000 M⁻¹ s⁻¹.

Take B2: the equilibrium dissociation constant (Kd) stood at 0.569 nM, the koff is 0.00037 s⁻¹ and the kon came out at 650000 M⁻¹ s⁻¹.

As for B3, the dissociation constant (Kd) was found to be 0.466 nM, the koff turned out to be 0.000397 s⁻¹ and the kon came to 850000 M⁻¹ s⁻¹.

For the molecule B4, the Kd came out at 0.527 nM, the koff was determined as 0.000402 s⁻¹ and the kon is 762000 M⁻¹ s⁻¹.

For the molecule B5, the Kd was determined as 0.505 nM, the koff was 0.000343 s⁻¹ and the kon turned out to be 679000 M⁻¹ s⁻¹.

On to B6, for which the Kd is 0.0695 nM, the koff is 0.000136 s⁻¹ and the kon was found to be 1.96e+06 M⁻¹ s⁻¹.

For B7, the Kd came to 0.463 nM, the koff amounted to 0.00039 s⁻¹ and the kon came to 842000 M⁻¹ s⁻¹.

In the case of B8, the Kd was determined as 0.444 nM, the koff is 0.000374 s⁻¹ and the kon amounted to 842000 M⁻¹ s⁻¹.

Regarding B9, the Kd turned out to be 0.687 nM, the koff came to 0.000601 s⁻¹ and the kon came to 875000 M⁻¹ s⁻¹.

With B10, the Kd is 0.465 nM, the koff is 0.000326 s⁻¹ and the kon was found to be 702000 M⁻¹ s⁻¹.

On to B11, for which the Kd was found to be 0.404 nM, the koff amounted to 0.000372 s⁻¹ and the kon was found to be 921000 M⁻¹ s⁻¹.

For the molecule B12, the Kd was found to be 0.587 nM, the koff amounted to 0.000401 s⁻¹ and the kon came to 683000 M⁻¹ s⁻¹.

For the molecule B13, the Kd turned out to be 0.0895 nM, the koff was 0.000171 s⁻¹ and the kon was 1.91e+06 M⁻¹ s⁻¹.

In the next test the target is T1, recombinant human IL-6. Nature of the test: SPR (Biacore), supernatant IgG on Protein A, 25 C.
For B1, the equilibrium dissociation constant (Kd) is 0.399 nM, the koff turned out to be 0.000126 s⁻¹ and the kon is 315000 M⁻¹ s⁻¹.

As for B2, the Kd was determined as 0.318 nM, the koff was determined as 0.000133 s⁻¹ and the kon came out at 418000 M⁻¹ s⁻¹.

On to B3, for which the Kd was 0.273 nM, the koff was found to be 0.000135 s⁻¹ and the kon stood at 495000 M⁻¹ s⁻¹.

For the molecule B4, the Kd amounted to 0.29 nM, the koff stood at 0.000147 s⁻¹ and the kon was 509000 M⁻¹ s⁻¹.

Turning to B5, the Kd was found to be 0.165 nM, the koff stood at 7.6e-05 s⁻¹ and the kon was 462000 M⁻¹ s⁻¹.

Take B6: the Kd stood at 0.0902 nM, the koff was 0.000117 s⁻¹ and the kon amounted to 1.3e+06 M⁻¹ s⁻¹.

For the molecule B7, the Kd was 0.209 nM, the koff was 0.000115 s⁻¹ and the kon was 551000 M⁻¹ s⁻¹.

In the case of B8, the Kd was 0.266 nM, the koff was found to be 0.000133 s⁻¹ and the kon was found to be 499000 M⁻¹ s⁻¹.

In the case of B9, the Kd amounted to 0.366 nM, the koff turned out to be 0.000148 s⁻¹ and the kon was 403000 M⁻¹ s⁻¹.

As to B10, the Kd was found to be 0.302 nM, the koff is 0.000121 s⁻¹ and the kon came to 402000 M⁻¹ s⁻¹.

Take B11: the Kd is 0.305 nM, the koff stood at 0.000174 s⁻¹ and the kon was 571000 M⁻¹ s⁻¹.

In the case of B12, the Kd came out at 0.399 nM, the koff is 0.000146 s⁻¹ and the kon was found to be 365000 M⁻¹ s⁻¹.

For the molecule B13, the Kd was 0.107 nM, the off-rate constant (koff) amounted to 0.00011 s⁻¹ and the kon came to 1.02e+06 M⁻¹ s⁻¹.

Another test addresses T2, recombinant human IL-6 (human, UniProt P05231 30-212).
T2 construct: Bought protein
The test can be described thus: SPR Biacore, supernatant Ab on Protein A chip, IL-6 analyte, 25 C. As for the experimental part:
as §1
T2 sequence (P05231 30-212 limits assumed): as above
In the case of B14, the Kd is 0.487 nM, the koff stood at 0.000171 s⁻¹ and the kon came to 351000 M⁻¹ s⁻¹.

As to B15, the Kd was found to be 0.407 nM, the off-rate (koff) amounted to 0.000139 s⁻¹ and the kon stood at 341000 M⁻¹ s⁻¹.

On to B16, for which the Kd turned out to be 0.329 nM, the koff was found to be 0.00022 s⁻¹ and the kon amounted to 668000 M⁻¹ s⁻¹.

As to B17, the Kd was determined as 0.356 nM, the koff was found to be 0.000123 s⁻¹ and the kon was 345000 M⁻¹ s⁻¹.

For the molecule B18, the Kd is 0.383 nM, the koff worked out at 0.000338 s⁻¹ and the kon came out at 882000 M⁻¹ s⁻¹.

With B19, the Kd worked out at 0.461 nM, the koff was 0.000201 s⁻¹ and the kon was found to be 436000 M⁻¹ s⁻¹.

Turning to B20, the equilibrium dissociation constant (Kd) is 0.463 nM, the koff turned out to be 0.000231 s⁻¹ and the kon was 499000 M⁻¹ s⁻¹.

Take B21: the Kd worked out at 0.401 nM, the koff amounted to 0.000226 s⁻¹ and the on-rate (kon) worked out at 563000 M⁻¹ s⁻¹.

Regarding B22, the Kd came out at 7.48 nM, the koff was 0.00444 s⁻¹ and the kon came out at 593000 M⁻¹ s⁻¹.

For the molecule B23, the Kd is 0.535 nM, the koff worked out at 0.000212 s⁻¹ and the on-rate (kon) was found to be 396000 M⁻¹ s⁻¹.

Take B24: the equilibrium dissociation constant (Kd) amounted to 0.472 nM, the koff came out at 0.000138 s⁻¹ and the kon was 292000 M⁻¹ s⁻¹.

For B25, the Kd amounted to 0.109 nM, the koff was 0.000107 s⁻¹ and the kon amounted to 987000 M⁻¹ s⁻¹.

For B26, the Kd is 0.666 nM, the dissociation rate constant (koff) amounted to 0.000203 s⁻¹ and the kon was found to be 305000 M⁻¹ s⁻¹.

On to B27, for which the Kd came out at 0.296 nM, the off-rate (koff) was determined as 0.000216 s⁻¹ and the kon is 729000 M⁻¹ s⁻¹.
